In the nanobody polyreactivity screen of Harvey et al. (2022):

Assay: yeast display, Sf9 membrane polyspecificity reagent, FACS + sequencing; frameworks hold sequencing errors
How it was run: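 Using colony PCR, genes from sorted yeast display clones were amplified, then sequenced on MiSeq at 2 × 250 and filtered by CDR length. The clones had been stained with 10% biotinylated, detergent-solubilized Sf9 membrane reagent for 1 hour at 4 °C and sorted by FACS into low and high (top ~1%) gates on anti-HA and streptavidin fluorescence. Polyreactivity labels come from the gate of origin.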

Row | Sequence | polyreactivity (PSR sort gate)
1 | QVQLVESGGGLVQAGGSLRLSCAASGITFYGYAMGWYRQAPGKERELVAAITSGGSTNYADSVKGRFTISRDNAKNTVYLQMNSLKPEDTAVYYCAADLWAYGYYYVGYDYWGQGTQVTVSS | low polyreactivity
2 | QVQLVESGGGLVQAGGSLRLSCAASGITFYGYAMGWYRQAPGKERELVAVITPSGSSTYYADSVKGRFTISRDNAKNTVYLQMNSLIPEDTAVYYCNARPGRRSLRSRTYDYWGQGTQVTVSS | high polyreactivity
3 | QVQLVESGGGLVQAGGSLRLSCAASGITFYGYTMGWYRQAPGKERELVAAITSGGNTYYADSVKGRFTISRDNAKNPVYLQMNCLKPEDTAVYYCAARRYCYTSITWCDYWRQGTQVTVSS | high polyreactivity
4 | QVQLVESGGGLVQAGGSLRLSCAASGITFYHYAMGWYRQAPGKERELVAAISSDDNTNYADSVKGRFTISRDNAKNTVYLQMNSLKPEDTAVYYCAAAPWYFYDQYFNAISFGYYYWGQGTQVTVSS | high polyreactivity
5 | QVQLVESGGGLVQAGGSLRLSCAASGITFYIYAMGWYRQAPGKERELVAAISDDGSTHYADSVKGRFTISRDNAKNTVYLQMNSLTPEDTAVYYCNADDDWFFDFFDYDYWGQGTQVTVSS | low polyreactivity
6 | QVQLVESGGGLVQAGGSLRLSCAASGITFYKYAKGWYRQAPGKERELVAAISRSGTTTYYADSVKGRFTISRDNAKNTVYLQMNSLKPEDTAVYYCNTVNWLTLNDRYYYWGQGTQVTVSS | high polyreactivity
7 | QVQLVESGGGLVQAGGSLRLSCAASGITFYKYVMGWYRQAPGKERELVAAITYSGGSTYYADSVKGRFTISRDYAKNTVYLQMYSLKPEDTAVYYCAKRRPALRWIYYYWGQGTQVTVSS | high polyreactivity
8 | QVQLVESGGGLVQAGGSLRLSCAASGITFYLYAMGWYRQAPGKERELVAAISRGGSTNYADSVKGRFTISRDNAKNTVYLQMNSLKPEDTAVYYCAAVDRYGFGYWGQGTQVTVSS | high polyreactivity
9 | QVQLVESGGGLVQAGGSLRLSCAASGITFYPYAMGWYRQAPGKERELVAAISWRSGSTNYADSVKGRFTISRDNAKNTVYLQMNSLKPEDTAVYYCNFDKVTSWYYYGYWGQGTQVTVSS | low polyreactivity
10 | QVQLVESGGGLVQAGGSLRLSCAASGITFYQYAMGWYRQAPGKERELVAGINSGGSTNYADSVKGRFTISRDNAKNTVYLQMNSLKPEDTAVYYCAAPWGWARRYRVYGGYYWGQGTQVTVSS | high polyreactivity
11 | QVQLVESGGGLVQAGGSLRLSCAASGITFYRKAMGWYRPAPGKEREFVAAINYGGSSTRYADSVKGRFTISRDYAKNTVYLQMNSLKPEDTAVYYCAVEKRYPRRRYDYWGQGTQVTVSS | low polyreactivity
12 | QVQLVESGGGLVQAGGSLRLSCAASGITFYRNAMGWDRQAPGKERELVAAISSRGGRTYYADSVKGRFTISRDNAKNTVYVQMNSLKPEDTAVYYCAKGGKVGSTLEYDYWGQGTQVTVST | high polyreactivity
13 | QVQLVESGGGLVQAGGSLRLSCAASGITFYRNAMGWYRQAPGKERELVAAISRRGGITRYADSVKGRFTISRDNAKNTVYLQMNSLKPEDTAVYYCAVAVNGVSRIKYYYWGQGTQVTVSS | high polyreactivity
14 | QVQLVESGGGLVQAGGSLRLSCAASGITFYRYALGWYRQAPGKERELVAAISSSGGSTYYADSVKGRFTISRDNAKNTVYLQMNSLKPEDTAVYYCATDSLYDYWGQGTQVTVSS | high polyreactivity
15 | QVQLVESGGGLVQAGGSLRLSCAASGITFYRYGMGWYRQAPGKARELVAAITYNGGGTYYADSVKGRFTISRDNAKNTVYLQMNSLKPEDTAVYYCNARYYRKYDYWGQGTQVTVSS | high polyreactivity
16 | QVQLVESGGGLVQAGGSLRLSCAASGITFYRYGMGWYRQAPGKERELVAAITSRGGSTSYADSVKGRFTISRDNAKNTVYLQMNSLKPEDTAVYYCAAFYRRDYDYWGQGTQVTVSS | high polyreactivity
17 | QVQLVESGGGLVQAGGSLRLSCAASGITFYRYTMGWYRQAPGKERELVAAIRSGGSTYYADSVKGRFTISRDNAKNTVYLQMNSLKPEDTAVYYCAAPYYRYNVPYYGGNGGDYWGQGTQVTVSS | high polyreactivity
18 | QVQLVESGGGLVQAGGSLRLSCAASGITFYSYAMGWYRQAPGKERELVAAISSSGTTYYADSVKGRFTISRDNAKNTVYLQMNSLKPEDTAVYYCATDYSLGWYQDSDGGYQFDYWGQGTQVTVSS | high polyreactivity
19 | QVQLVESGGGLVQAGGSLRLSCAASGITFYTNAMGWYRQAPGKERELVAAISSGDSTNYADSVKGRFTISRDNAKNTVYLQMNSLKPEDTAVYYCAKEATQLVWIGMDYWGQGTQVTVSS | low polyreactivity
20 | QVQLVESGGGLVQAGGSLRLSCAASGITFYVNAMGWYRQAPGKERELVAAITQSVDITSYADSVKGRFTISRDNAKNTVYLQMNSLKPEDTAVYYCATRGIPDDNARDYWGQGTQVTVSS | low polyreactivity
21 | QVQLVESGGGLVQAGGSLRLSCAASGITFYVNAMGWYRQAPGKERELVASISTGGSTNYADSVKGRFTISRDNAKNTVYLQMNSLKPEDTAVYYCAARVDYHPSLRDYWGQGTQVTVSS | low polyreactivity
22 | QVQLVESGGGLVQAGGSLRLSCAASGITFYVYALRWYRQAPGKERELVASISWIGGRTYYADSVKGRFTISRDNAKNTVYVQMNSLKPEDTAVYYCAARAYSYWSGLDYWGQGTQVTVSS | high polyreactivity

Row | Sequence | polyreactivity (PSR sort gate)
23 | QVQLVESGGGLVQAGGSLRLSCAASGITFYVYDMGWYRQAPGKERELVAAISWSGGSTYYADSVKGRFTISRDNAKNTVYLQMNSLKPEDTAVYYCAAEVEYWYELYDYWGQGTQVTVSS | high polyreactivity
24 | QVQLVESGGGLVQAGGSLRLSCAASGITFYWYAMGWYRQAPGKERELVAAISSGGSTYYADSVKGRFTISRDNAKNTVYLQMNSLKPEDTAVYYCAAAFRYTPLSDHGYWGQGTQVTVSS | high polyreactivity
25 | QVQLVESGGGLVQAGGSLRLSCAASGITFYYYAMGRYRQAPGKERELVAAIDTDGSTYYADSVKGRFTISRDNAKNTVYLQMNSLKPVDTAVYYCNAVGSRRSIPRVYYWGQGTQVNVSS | high polyreactivity
26 | QVQLVESGGGLVQAGGSLRLSCAASGITFYYYAMGWYRQAPGKERELVAAINWSGTSTYYADSVKGRFTISRDNAKNTVYLQMNSLKPEDTAVYYCNAERGRSFWWAYDYWGQGTQVTVSS | low polyreactivity
27 | QVQLVESGGGLVQAGGSLRLSCAASGITFYYYARGWYRQAPGKERELVAAINSGGITNYADSVKGRFTISRDNAKNTVFLQMNSLKPEDTAVYYCAASSGFRYRYGYWGQGTQVTVSS | high polyreactivity
28 | QVQLVESGGGLVQAGGSLRLSCAASGITFYYYTMGWYRTAPGKEREFVAVISGSGGSTYYADSVKGRFTISRDNAKNTVYLQMNSLKPEDTAVYYCAARNSFLAYFVGLIQEDDYWGQGTQVTVSS | high polyreactivity
29 | QVQLVESGGGLVQAGGSLRLSCAASGITIAGYAMGWYRQAPGKERELVAAITIGGRTYYADSVKGRFTISRDNAKNSVYLQMNSLKPEDTAVYYCAGVVRALTIKYGYWGQGTQVTVSS | high polyreactivity
30 | QVQLVESGGGLVQAGGSLRLSCAASGITIGYNAMGWYRQAPGKERELVATIRSGGSTYYADSVKGRFTISRDNAQKTVYLQMNSLKPEDTAVYYCNRDGYYYSTFDFDYWGQGTQVTVSS | low polyreactivity
31 | QVQLVESGGGLVQAGGSLRLSCAASGITIKYYTMGWYRQANGKERELVAAISRSGGSTYYADSVKGRFTISLDNAKNTVYLQMNSMIPEDTAVYYCAAERVAYRGVTFPYGYWGQGTQVTVSS | high polyreactivity
32 | QVQLVESGGGLVQAGGSLRLSCAASGITIPVYLGWYRQAPGKETELVAAISSGGSTYADSVKGRFTISRDNAKNTVYLQMNSLKPEDTAVYYCNADRWFGNYLHLTFLNDYWGQGTQVTVSS | low polyreactivity
33 | QVQLVESGGGLVQAGGSLRLSCAASGITIREYAMGWYRQAPGKERELVASISGGGGSTSYADSVKGRFTISRDNAKNTVYLQMNSLKPEDTAVYYCATRYAIAGWVGYYYWGQGTQVTVSS | low polyreactivity
34 | QVQLVESGGGLVQAGGSLRLSCAASGITIRRYAMGWYRQAPGKERELVAAISTSGGGTYYADSVKGRFTISRDNAKYTVYLQMNSLKPEDTAVYYCAARYLGYLLSGYPPYDYWGQGTQVTVSS | high polyreactivity
35 | QVQLVESGGGLVQAGGSLRLSCAASGITISWYAMGWYRQAPGKERELVAAITRTAGTNYADSVKGRFTISRDNAKNTVYLQMNSLKPEDTAVYYCAAVGHGGLLYWRNYGYGYWGQGTQVTVSS | low polyreactivity
36 | QVQLVESGGGLVQAGGSLRLSCAASGITIVNYVMGWYRQAPGKERELVAAISLGGGTYYADSVKGRFTISRDNAKNTVYLQMNSLKADDTAVYYGNASYGGLAFYIGVYVTGYDYWRQGTQVTVSS | low polyreactivity
37 | QVQLVESGGGLVQAGGSLRLSCAASGITIVYYTMGWYIQAPGKERELVASITWDGGSTYYADSVKGRFTISRDNAKNTVYLQMNSLKPEDTAVYYCNRDRVSGGKYNYWGQGTQVTVSS | low polyreactivity
38 | QVQLVESGGGLVQAGGSLRLSCAASGITIYGNAMGWYRQAPGKERELVAAITFSGGITYYADSVKGRFTISRDNAKNTVYLQMNSLKPEDTAVYYCATDPIGGWTRPQRYGDDYWGQGTQVTVSS | low polyreactivity
39 | QVQLVESGGGLVQAGGSLRLSCAASGITIYGYAMGWYRQAPGKERELVAAITRSGGRTYYADSVKGRFTISRDNAKNTVYLQMNSLKPEDTAVYYCAKDMNDETAPYYYWGQGTQVTVSS | high polyreactivity
40 | QVQLVESGGGLVQAGGSLRLSCAASGITLAIYAMGWYRQAPGKERELVAAISSSGASTYYADSVKGRFTISRDNAKNTVYILMNSLKPEDTAVYYCAAAYGGSSYEYNYWGQGTQVTVSS | low polyreactivity
41 | QVQLVESGGGLVQAGGSLRLSCAASGITLAWYAMGWYRQAPGKERELVAAINSGGSTYYADSVKGRFTISRDNAKNTVYLQMNSLKPEDTAVYYCKTDDDSSSTGYYSWGQGTQVTVSS | low polyreactivity
42 | QVQLVESGGGLVQAGGSLRLSCAASGITLFGYAMGWYRQAPGKERELVAVITSDGGRTYYADSVKGRFTISRDNAKNTVYLQMNSLKPEDTAVYYCAARAYDRTSGYYYWGQGTQVTVSS | low polyreactivity
43 | QVQLVESGGGLVQAGGSLRLSCAASGITLFGYTMGWYRQAPGKERELVAAIRRRGVSTYYADSVKGRFTISRDNAKNTVYLQMNSLKPEDTAVYYCAKSLKPYTDYDYWGQGTQVTVSS | high polyreactivity
